Assay results from US20040076958.

T1: AA21 synthetic peptide (N21 with two conserved glycines replaced by alanine)
T1 chain: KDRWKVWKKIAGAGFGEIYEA

B1: His-tagged BDTK(38-319), BDTK kinase domain (protein)
chain: KKIGGGGFGEIYEAMDLLTRENVALKVESAQQPKQVLKMEVAVLKKLQGKDHVCRFIGCGRNEKFNYVVMQLQGRNLADLRRSQPRGTFTLSTTLRLGKQILESIEAIHSVGFLHRDIKPSNFAMGRLPSTYRKCYMLDFGLARQYTNTTGDVRPPRNVAGFRGTVRYASVNAHKNREMGRHDDLWSLFYMLVEFAVGQLPWRKIKDKEQVGMIKEKYEHRMLLKHMPSEFHLFLDHIASLDYFTKPDYQLIMSVFENSMKERGIAENEAFDWEKAGTDALL
B2: Brain Derived Tau Kinase (BDTK) (protein)
chain: MQCLAAALKDETNMSGGGEQADILPANYVVKDRWKVVKKIGGGGFGEIYEAMDLLTRENVALKVESAQQPKQVLKMEVAVLKKLQGKDHVCRFIGCGRNEKFNYVVMQLQGRNLADLRRSQPRGTFTLSTTLRLGKQILESIEAIHSVGFLHRDIKPSNFAMGRLPSTYRKCYMLDFGLARQYTNTTGDVRPPRNVAGFRGTVRYASVNAHKNREMGRHDDLWSLFYMLVEFAVGQLPWRKIKDKEQVGMIKEKYEHRMLLKHMPSEFHLFLDHIASLDYFTKPDYQLIMSVFENSMKERGIAENEAFDWEKAGTDALLSTSTSTPPQQNTRQTAAMFGVVNVTPVPGDLLRENTEDVLQGEHLSDQENAPPILPGRPSEGLGPSPHLVPHPGGPEAEVWEETDVNRNKLRINIGKSPCVEEEQSRGMGVPSSPVRAPPDSPTTPVRSLRYRRVNSPESERLSTADGRVELPERRSRMDLPGSPSRQACSSQPAQMLSVDTGHADRQASGRMDVSASVEQEALSNAFRSVPLAEEEDFDSKEWVIIDKETELKDFPPGAEPSTSGTTDEEPEELRPLPEEGEERRRLGAEPTVRPRGRSMQALAEEDLQHLPPQPLPPQLSQGDGRSETSQPPTPGSPSHSPLHSGPRPRRRESDPTGPQRQVFSVAPPFEVNGLPRAVPLSLPYQDFKRDLSDYRERARLLNRVRRVGFSHMLLTTPQVPLAPVQPQANGKEEEEEEEEDEEEEEEDEEEEEEEEEEEEEEEEEEEEEEEAAAAVALGEVLGPRSGSSSEGSERSTDRSQEGAPSTLLADDQKESRGRASMADGDLEPEEGSKTLVLVSPGDMKKSPVTAELAPDPDLGTLAALTPQHERPQPTGSQLDVSEPGTLSSVLKSEPKPPGPGAGLGAGTVTTGVGGVAVTSSPFTKVERTFVHIAEKTHLNVMSSGGQALRSEEFSAGGELGLELASDGGAVEEGARAPLENGLALSGLNGAEIEGSALSGAPRETPSEMATNSLPNGPALADGPAPVSPLEPSPEKVATISPRRHAMPGSRPRSRIPVLLSEEDTGSEPSGSLSAKERWSKRARPQQDLARLVMEKRQGRLLLRLASGASSSSSEEQRRASETLSGTGSEEDTPASEPAAALPRKSGRAAATRSRIPRPIGLRMPMPVAAQQPASRSHGAAPALDTAITSRLQLQTPPGSATAADLRPKQPPGRGLGPGRAQAGARPPAPRSPRLPASTSAARNASASPRSQSLRRESPSPSHQARPGVPPPRGVPPARAQPDGTPSPGGSKKGPRGKLQAQRATTKGRAGGAEGRAGAR

Assays:
[1] = target: recombinant human tau (1-441), full length tau, P10636
[2] = target: T1, AA21 synthetic peptide (N21 with two …)

recombinant human tau (1-441), full length tau, P10636, sequence (P10636 whole entry, looked up, tested part not stated): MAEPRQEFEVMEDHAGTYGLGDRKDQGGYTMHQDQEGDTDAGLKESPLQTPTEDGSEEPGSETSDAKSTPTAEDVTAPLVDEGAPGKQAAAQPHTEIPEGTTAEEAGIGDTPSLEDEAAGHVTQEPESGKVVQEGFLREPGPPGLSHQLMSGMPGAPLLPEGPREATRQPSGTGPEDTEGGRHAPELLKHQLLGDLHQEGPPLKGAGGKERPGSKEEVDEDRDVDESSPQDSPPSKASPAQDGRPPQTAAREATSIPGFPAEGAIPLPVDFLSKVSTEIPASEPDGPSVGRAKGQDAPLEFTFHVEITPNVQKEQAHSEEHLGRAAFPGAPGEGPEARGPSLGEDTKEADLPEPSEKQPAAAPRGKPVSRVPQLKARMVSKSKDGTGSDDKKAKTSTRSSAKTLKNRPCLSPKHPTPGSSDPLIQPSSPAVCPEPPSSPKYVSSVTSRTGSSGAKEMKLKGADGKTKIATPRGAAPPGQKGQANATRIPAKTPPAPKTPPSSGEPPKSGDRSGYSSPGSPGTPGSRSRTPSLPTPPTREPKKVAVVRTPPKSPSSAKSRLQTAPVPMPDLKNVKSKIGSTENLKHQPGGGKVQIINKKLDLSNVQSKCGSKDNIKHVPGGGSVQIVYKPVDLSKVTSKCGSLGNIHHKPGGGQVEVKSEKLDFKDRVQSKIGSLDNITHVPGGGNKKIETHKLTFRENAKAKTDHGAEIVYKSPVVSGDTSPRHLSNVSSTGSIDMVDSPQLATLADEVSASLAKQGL

Row | Protein | tau phosphorylation in vitro ([gamma-32P]ATP, SDS-PAGE, autoradiography) [1] | time at which tau phosphorylation was saturated, pH 6.5 [1] [min at pH 6.5] | time at which tau phosphorylation was saturated, pH 7.5 [1] | tau phosphorylation [1] | BDTK phosphorylation and tau phosphorylation in vitro (AA21-BDTK, AA21-tau) [2]
1 | B1 | did phosphorylate tau protein as well as BDTK itself | 120 | tau phosphorylation was saturated at 60 min at pH 7.5 |  | 
2 | B2 |  |  |  | Full length BDTK (SEQ ID NO:1), and isolated BDTK kinase domain (amino acids 38-319, SEQ ID NO:4) are able to phosphorylate tau | AA21 mutated peptide rather increased both BDTK (AA21-BDTK, from 30 to 300 )µM) and tau phosphorylation (AA21-tau, from 30 µM to 1 µM) in dose response manner
